The numbers were not newly measured in article PMC2900478, which cites them from elsewhere.

The target in the series is GABARAP (Homo sapiens) (UniProt O95166).
Chain of UniProt O95166 (O95166 1-116): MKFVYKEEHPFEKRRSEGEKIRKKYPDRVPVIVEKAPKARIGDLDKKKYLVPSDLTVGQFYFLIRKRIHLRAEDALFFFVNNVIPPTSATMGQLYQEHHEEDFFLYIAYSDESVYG

Turning to Nix (from UniProt O60238), the Kd (as a rule, the equilibrium constant for the complex coming apart) was 100 µM.
